Data taken from patent US20080044360A1 (COLLAGEN MEDICAL, published 2008).
Bridge positions count the residues as written; N and C are the ends. Square brackets hold non-standard residues; d marks the D form. Ends that are not written are not given here.

B1: SEQ ID NO 28 (peptide)
peptide: SWICTGDNIDWNCRFA
modifications: disulfide 4-13 (inferred)
notes: cyclic, disulfide
B2: SEQ ID NO 43 (peptide)
peptide: PWQCYSDKTSWVCNLY
modifications: disulfide 4-13 (inferred)
notes: cyclic, disulfide
B3: SEQ ID NO 77 (peptide)
peptide: GWQCQGTDSLDWKCLYM
modifications: disulfide 4-14 (inferred)
notes: cyclic, disulfide
B4: SEQ ID NO 33 (peptide)
peptide: AWTCVGGEKTWGCVWN
modifications: disulfide 4-13 (inferred)
notes: cyclic, disulfide
B5: SEQ ID NO 42 (peptide)
peptide: TWRCDQFKGKWVCRGG
modifications: disulfide 4-13 (inferred)
notes: cyclic, disulfide
B6: SEQ ID NO 58 (peptide)
peptide: GWVCMMRETDWNCSI
modifications: disulfide 4-13 (inferred)
notes: cyclic, disulfide
B7: SEQ ID NO 46 (peptide)
peptide: GWVCLQKGPKWVCDWD
modifications: disulfide 4-13 (inferred)
notes: cyclic, disulfide
B8: SEQ ID NO 23 (peptide)
peptide: AWDCSGNIPTWYCRRL
modifications: disulfide 4-13 (inferred)
notes: cyclic, disulfide
B9: SEQ ID NO 75 (peptide)
peptide: ERNCVLNDFRWTCGGD
modifications: disulfide 4-13 (inferred)
notes: cyclic, disulfide
B10: SEQ ID NO 79 (peptide)
peptide: FWTCELDFRQSWYCYDK
modifications: disulfide 4-14 (inferred)
notes: cyclic, disulfide
B11: SEQ ID NO 29 (peptide)
peptide: DWICHGDFDTWKCDLQ
modifications: disulfide 4-13 (inferred)
notes: cyclic, disulfide
B12: SEQ ID NO 30 (peptide)
peptide: GWDCQGTDNIWECVRK
modifications: disulfide 4-13 (inferred)
notes: cyclic, disulfide
B13: SEQ ID NO 26 (peptide)
peptide: WRCDGDAHDWHCDWF
modifications: disulfide 3-12 (inferred)
notes: cyclic, disulfide
B14: SEQ ID NO 41 (peptide)
peptide: VWACRGGTTNWHCDL
modifications: disulfide 4-13 (inferred)
notes: cyclic, disulfide
B15: SEQ ID NO 55 (peptide)
peptide: SWNCHWRNQGWLCSGG
modifications: disulfide 4-13 (inferred)
notes: cyclic, disulfide
B16: SEQ ID NO 11 (peptide)
peptide: PLVCHPPYSGSCSLH
modifications: disulfide 4-12 (inferred)
notes: cyclic, disulfide
B17: SEQ ID NO 63 (peptide)
peptide: NWYCSQALDNWSCKLR
modifications: disulfide 4-13 (inferred)
notes: cyclic, disulfide
B18: SEQ ID NO 44 (peptide)
peptide: GWNCYEYDSQWICDHL
modifications: disulfide 4-13 (inferred)
notes: cyclic, disulfide
B19: SEQ ID NO 35 (peptide)
peptide: YWVCGGDHQSWHCSHP
modifications: disulfide 4-13 (inferred)
notes: cyclic, disulfide
B20: SEQ ID NO 47 (peptide)
peptide: PWTCRMTENTWVCDLN
modifications: disulfide 4-13 (inferred)
notes: cyclic, disulfide
B21: SEQ ID NO 70 (peptide)
peptide: FWRCALLDGHWQCTDH
modifications: disulfide 4-13 (inferred)
notes: cyclic, disulfide
B22: SEQ ID NO 73 (peptide)
peptide: SWHCALVENSWQCSEA
modifications: disulfide 4-13 (inferred)
notes: cyclic, disulfide
B23: SEQ ID NO 53 (peptide)
peptide: GWFCKLVDGNWECSTK
modifications: disulfide 4-13 (inferred)
notes: cyclic, disulfide
B24: SEQ ID NO 49 (peptide)
peptide: AWFCSQKNRLWSCGET
modifications: disulfide 4-13 (inferred)
notes: cyclic, disulfide
B25: SEQ ID NO 12 (peptide)
peptide: PMICHAPYVGKCNFL
modifications: disulfide 4-12 (inferred)
notes: cyclic, disulfide
B26: SEQ ID NO 34 (peptide)
peptide: MWDCTGNSAEWRCEMQ
modifications: disulfide 4-13 (inferred)
notes: cyclic, disulfide
B27: SEQ ID NO 40 (peptide)
peptide: EWRCRGDSSSWLCDYT
modifications: disulfide 4-13 (inferred)
notes: cyclic, disulfide
B28: SEQ ID NO 59 (peptide)
peptide: HWQCRLTDYGWNCDER
modifications: disulfide 4-13 (inferred)
notes: cyclic, disulfide
B29: SEQ ID NO 45 (peptide)
peptide: EWQCTQYANQWNCKYN
modifications: disulfide 4-13 (inferred)
notes: cyclic, disulfide
B30: SEQ ID NO 50 (peptide)
peptide: KWFCELMQDQWQCGSK
modifications: disulfide 4-13 (inferred)
notes: cyclic, disulfide
B31: SEQ ID NO 51 (peptide)
peptide: KWFCELMHDQWQCGSK
modifications: disulfide 4-13 (inferred)
notes: cyclic, disulfide
B32: SEQ ID NO 78 (peptide)
peptide: TWACDLDEYGGWQCYTG
modifications: disulfide 4-14 (inferred)
notes: cyclic, disulfide
B33: SEQ ID NO 54 (peptide)
peptide: MWNCTMTKSGWRCFEK
modifications: disulfide 4-13 (inferred)
notes: cyclic, disulfide
B34: SEQ ID NO 22 (peptide)
peptide: DWECHGNEFEWNCLMR
modifications: disulfide 4-13 (inferred)
notes: cyclic, disulfide
B35: SEQ ID NO 31 (peptide)
peptide: GWVCGGDHTTWECHLQ
modifications: disulfide 4-13 (inferred)
notes: cyclic, disulfide
B36: SEQ ID NO 76 (peptide)
peptide: FGACDIFPTFHTCPGV
modifications: disulfide 4-13 (inferred)
notes: cyclic, disulfide
B37: SEQ ID NO 20 (peptide)
peptide: PWYCSGDHLDWKCIYQ
modifications: disulfide 4-13 (inferred)
notes: cyclic, disulfide
B38: SEQ ID NO 64 (peptide)
peptide: TWICSHNDKGWTCGDQ
modifications: disulfide 4-13 (inferred)
notes: cyclic, disulfide
B39: SEQ ID NO 60 (peptide)
peptide: EWHCVLNDFRWTCGGD
modifications: disulfide 4-13 (inferred)
notes: cyclic, disulfide
B40: SEQ ID NO 24 (peptide)
peptide: EWLCVGDSLKWYCKHS
modifications: disulfide 4-13 (inferred)
notes: cyclic, disulfide
B41: SEQ ID NO 71 (peptide)
peptide: SWHCALMGSRWVCGQN
modifications: disulfide 4-13 (inferred)
notes: cyclic, disulfide
B42: SEQ ID NO 171 (peptide)
peptide: QWTCSGDE[dY]TWHCNYE
modifications: disulfide 4-13 (inferred); not fully specified (N-terminus); printed as QWTCSGDEyTWHCNYE
notes: cyclic, disulfide
B43: SEQ ID NO 21 (peptide)
peptide: DWTCVGDHKTWKCNFH
modifications: disulfide 4-13 (inferred)
notes: cyclic, disulfide
B44: SEQ ID NO 32 (peptide)
peptide: NWVCSGDHADWSCALI
modifications: disulfide 4-13 (inferred)
notes: cyclic, disulfide
B45: SEQ ID NO 69 (peptide)
peptide: HWQCGEKMSFWSCELV
modifications: disulfide 4-13 (inferred)
notes: cyclic, disulfide
B46: SEQ ID NO 56 (peptide)
peptide: SWNCHMIRNEWRCTGH
modifications: disulfide 4-13 (inferred)
notes: cyclic, disulfide
B47: SEQ ID NO 4 (peptide)
peptide: TWMCVDPPLWRCWVQ
modifications: disulfide 4-12 (inferred)
notes: cyclic, disulfide
B48: SEQ ID NO 10 (peptide)
peptide: LTVCHPPYYGRCNFV
modifications: disulfide 4-12 (inferred)
notes: cyclic, disulfide
B49: SEQ ID NO 52 (peptide)
peptide: RWSCWLDENGWKCDGT
modifications: disulfide 4-13 (inferred)
notes: cyclic, disulfide
B50: SEQ ID NO 57 (peptide)
peptide: RWTCDLQRGDWQCSTI
modifications: disulfide 4-13 (inferred)
notes: cyclic, disulfide
B51: SEQ ID NO 72 (peptide)
peptide: EWHCVFIQGDWLCNSG
modifications: disulfide 4-13 (inferred)
notes: cyclic, disulfide
B52: SEQ ID NO 27 (peptide)
peptide: SWHCFGDNENWMCNLR
modifications: disulfide 4-13 (inferred)
notes: cyclic, disulfide
B53: SEQ ID NO 48 (peptide)
peptide: AWSCWIVEGRWNCSDI
modifications: disulfide 4-13 (inferred)
notes: cyclic, disulfide
B54: SEQ ID NO 62 (peptide)
peptide: HWSCYLGDNGWNCHDR
modifications: disulfide 4-13 (inferred)
notes: cyclic, disulfide
B55: SEQ ID NO 61 (peptide)
peptide: KWSCYMVDHQWYCREF
modifications: disulfide 4-13 (inferred)
notes: cyclic, disulfide
B56: SEQ ID NO 25 (peptide)
peptide: IWLCTGGAATWNCKFD
modifications: disulfide 4-13 (inferred)
notes: cyclic, disulfide

target: T1, human collagen type I, acid soluble, extracted from placenta (Sigma C7774) (human, UniProt P02452 162-1218; P08123 80-1119); assay: dried collagen assay
T1 construct: tissue extract, gelled and dried in wells; also called dried human collagen; h-Collagen
Procedure: An additional 90 μL is reserved in a HPLC glass vial as a measure of the total concentration.

T1 sequence (P02452 162-1218 limits assumed, chain 1 of 2): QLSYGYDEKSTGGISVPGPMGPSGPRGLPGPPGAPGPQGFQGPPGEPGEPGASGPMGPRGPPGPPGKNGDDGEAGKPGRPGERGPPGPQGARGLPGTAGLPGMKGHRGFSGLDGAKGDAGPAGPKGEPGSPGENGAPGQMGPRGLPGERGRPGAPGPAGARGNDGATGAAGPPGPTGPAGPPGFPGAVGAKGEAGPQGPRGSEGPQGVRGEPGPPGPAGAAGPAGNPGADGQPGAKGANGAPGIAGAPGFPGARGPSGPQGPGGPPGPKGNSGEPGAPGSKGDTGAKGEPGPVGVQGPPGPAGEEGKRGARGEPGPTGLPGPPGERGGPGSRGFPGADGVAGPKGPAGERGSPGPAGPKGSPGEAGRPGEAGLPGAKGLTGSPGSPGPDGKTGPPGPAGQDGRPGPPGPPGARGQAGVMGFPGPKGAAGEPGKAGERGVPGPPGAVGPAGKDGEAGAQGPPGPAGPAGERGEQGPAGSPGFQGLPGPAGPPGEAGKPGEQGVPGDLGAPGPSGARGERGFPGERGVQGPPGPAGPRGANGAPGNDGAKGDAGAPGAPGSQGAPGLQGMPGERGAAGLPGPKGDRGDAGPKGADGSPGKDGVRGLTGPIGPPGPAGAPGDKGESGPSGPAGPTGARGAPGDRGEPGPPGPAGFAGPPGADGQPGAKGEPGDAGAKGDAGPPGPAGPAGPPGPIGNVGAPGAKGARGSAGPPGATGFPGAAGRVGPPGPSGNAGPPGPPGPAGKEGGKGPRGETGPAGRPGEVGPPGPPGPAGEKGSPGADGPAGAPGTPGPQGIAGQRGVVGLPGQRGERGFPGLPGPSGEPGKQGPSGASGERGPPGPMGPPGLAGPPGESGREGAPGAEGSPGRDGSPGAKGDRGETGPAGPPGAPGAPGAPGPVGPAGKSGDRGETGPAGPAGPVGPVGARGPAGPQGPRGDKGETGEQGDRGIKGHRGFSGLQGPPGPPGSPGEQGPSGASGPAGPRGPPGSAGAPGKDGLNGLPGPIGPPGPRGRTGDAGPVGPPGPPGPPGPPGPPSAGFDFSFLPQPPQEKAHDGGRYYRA
T1 sequence (P08123 80-1119 limits assumed, chain 2 of 2): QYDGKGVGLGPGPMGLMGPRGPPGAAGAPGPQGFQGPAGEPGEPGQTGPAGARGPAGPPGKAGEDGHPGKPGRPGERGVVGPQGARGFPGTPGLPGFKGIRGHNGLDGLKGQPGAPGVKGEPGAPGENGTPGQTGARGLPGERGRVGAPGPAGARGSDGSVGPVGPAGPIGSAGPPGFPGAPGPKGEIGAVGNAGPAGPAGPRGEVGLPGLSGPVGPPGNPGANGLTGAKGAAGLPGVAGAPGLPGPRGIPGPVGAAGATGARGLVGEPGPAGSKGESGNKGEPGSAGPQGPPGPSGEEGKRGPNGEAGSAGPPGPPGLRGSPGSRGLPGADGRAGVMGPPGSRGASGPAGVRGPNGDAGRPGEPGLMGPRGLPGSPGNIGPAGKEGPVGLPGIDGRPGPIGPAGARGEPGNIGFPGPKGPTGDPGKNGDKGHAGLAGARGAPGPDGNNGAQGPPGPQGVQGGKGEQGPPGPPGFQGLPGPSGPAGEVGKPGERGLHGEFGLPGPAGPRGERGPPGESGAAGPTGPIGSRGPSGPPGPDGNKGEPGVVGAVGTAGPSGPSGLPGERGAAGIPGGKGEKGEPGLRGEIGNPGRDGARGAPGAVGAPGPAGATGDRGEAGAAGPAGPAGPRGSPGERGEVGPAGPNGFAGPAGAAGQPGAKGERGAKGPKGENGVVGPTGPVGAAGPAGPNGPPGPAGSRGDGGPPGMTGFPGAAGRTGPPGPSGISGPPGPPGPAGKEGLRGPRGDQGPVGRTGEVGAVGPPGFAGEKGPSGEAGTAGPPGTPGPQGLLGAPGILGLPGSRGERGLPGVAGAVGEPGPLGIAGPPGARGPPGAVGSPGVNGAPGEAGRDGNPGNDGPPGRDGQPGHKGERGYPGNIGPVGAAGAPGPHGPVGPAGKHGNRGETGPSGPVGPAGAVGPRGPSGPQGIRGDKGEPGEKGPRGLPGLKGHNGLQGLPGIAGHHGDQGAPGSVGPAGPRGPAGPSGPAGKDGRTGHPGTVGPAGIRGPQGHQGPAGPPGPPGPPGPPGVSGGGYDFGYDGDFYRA

Question: How did the “% bound” value turn out when B1 was run?
Answer: Its value is 20%.

Question: For B2, which “% bound” value is on record?
Answer: Its value is 30%.

Question: With B3 as the binder, how does the “% bound” value read?
Answer: Its value is 12%.

Question: B4 was tested. Which “% bound” value did it give?
Answer: The value was 12%.

Question: For B5, which “% bound” value is on record?
Answer: Its value is 40%.

Question: For B6, which “% bound” value is on record?
Answer: The value was 10%.

Question: B7 was tested. Which “% bound” value did it give?
Answer: The value was 23%.

Question: With B8 as the binder, how does the “% bound” value read?
Answer: Its value is 44%.

Question: How did the “% bound” value turn out when B9 was run?
Answer: The value was 10%.

Question: With B10 as the binder, how does the “% bound” value read?
Answer: Its value is 8%.

Question: B11 was tested. Which “% bound” value did it give?
Answer: The value was 16%.

Question: How did the “% bound” value turn out when B12 was run?
Answer: The value was 16%.

Question: For B13, which “% bound” value is on record?
Answer: The value was 25%.

Question: For B14, which “% bound” value is on record?
Answer: Its value is 1%.

Question: B15 was tested. Which “% bound” value did it give?
Answer: The value was 12%.

Question: B16 was tested. Which “% bound” value did it give?
Answer: The value was 9%.

Question: B17 was tested. Which “% bound” value did it give?
Answer: The value was 8%.

Question: How did the “% bound” value turn out when B18 was run?
Answer: The value was 28%.

Question: For B19, which “% bound” value is on record?
Answer: The value was 8%.

Question: Which “% bound” value does the source give for B20 here?
Answer: The value was 22%.

Question: With B21 as the binder, how does the “% bound” value read?
Answer: The value was 3%.

Question: Which “% bound” value does the source give for B22 here?
Answer: Its value is 1%.

Question: B23 was tested. Which “% bound” value did it give?
Answer: The value was 12%.

Question: Which “% bound” value does the source give for B24 here?
Answer: Its value is 19%.

Question: B25 was tested. Which “% bound” value did it give?
Answer: The value was 7%.

Question: Which “% bound” value does the source give for B26 here?
Answer: The value was 11%.

Question: How did the “% bound” value turn out when B27 was run?
Answer: Its value is 3%.

Question: How did the “% bound” value turn out when B28 was run?
Answer: Its value is 10%.

Question: With B29 as the binder, how does the “% bound” value read?
Answer: The value was 25%.

Question: B30 was tested. Which “% bound” value did it give?
Answer: The value was 18%.

Question: Which “% bound” value does the source give for B31 here?
Answer: Its value is 18%.

Question: For B32, which “% bound” value is on record?
Answer: The value was 8%.

Question: How did the “% bound” value turn out when B33 was run?
Answer: The value was 12%.

Question: Which “% bound” value does the source give for B34 here?
Answer: The value was 55%.

Question: B35 was tested. Which “% bound” value did it give?
Answer: The value was 15%.

Question: With B36 as the binder, how does the “% bound” value read?
Answer: The value was 1%.

Question: B37 was tested. Which “% bound” value did it give?
Answer: Its value is 64%.

Question: With B38 as the binder, how does the “% bound” value read?
Answer: Its value is 8%.

Question: For B39, which “% bound” value is on record?
Answer: The value was 10%.

Question: How did the “% bound” value turn out when B40 was run?
Answer: Its value is 43%.

Question: For B41, which “% bound” value is on record?
Answer: The value was 3%.

Question: With B42 as the binder, how does the “% bound” value read?
Answer: Its value is 13%.

Question: With B43 as the binder, how does the “% bound” value read?
Answer: The value was 57%.

Question: For B44, which “% bound” value is on record?
Answer: Its value is 12%.

Question: B45 was tested. Which “% bound” value did it give?
Answer: The value was 3%.

Question: How did the “% bound” value turn out when B46 was run?
Answer: Its value is 11%.

Question: How did the “% bound” value turn out when B47 was run?
Answer: The value was 45%.

Question: B48 was tested. Which “% bound” value did it give?
Answer: Its value is 9%.

Question: Which “% bound” value does the source give for B49 here?
Answer: The value was 15%.

Question: B50 was tested. Which “% bound” value did it give?
Answer: The value was 11%.

Question: For B51, which “% bound” value is on record?
Answer: The value was 1%.

Question: B52 was tested. Which “% bound” value did it give?
Answer: The value was 24%.

Question: With B53 as the binder, how does the “% bound” value read?
Answer: The value was 22%.

Question: For B54, which “% bound” value is on record?
Answer: The value was 9%.

Question: With B55 as the binder, how does the “% bound” value read?
Answer: The value was 9%.

Question: With B56 as the binder, how does the “% bound” value read?
Answer: The value was 39%.
